The text below walks through data of PMC8752864 (Nature Communications, 2022).

The data set concerns the molecule itself. The data set can be described thus: cryo-EM structure.

B1: RNA polymerase of influenza A/Brevig Mission/1/1918 (H1N1) virus, heterotrimer of PA, PB1 and PB2 (complex)
chain 1: […]
chain 2: MDVNPTLLFLKVPAQNAISTTFPYTGDPPYSHGTGTGYTMDTVNRTHQYSEKGRWTTNTETGAPQLNPIDGPLPEDNEPSGYAQTDCVLEAMAFLEESHPGIFENSCLETMEVVQQTRVDKLTQGRQTYDWTLNRNQPAATALANTIEVFRSNGLTANESGRLIDFLKDVMESMDKEEMEITTHFQRKRRVRDNMTKKMVTQRTIGKKKQRLNKRSYLIRALTLNTMTKDAERGKLKRRAIATPGMQIRGFVYFVETLARSICEKLEQSGLPVGGNEKKAKLANVVRKMMTNSQDTELSFTITGDNTKWNENQNPRMFLAMITYITRNQPEWFRNVLSIAPIMFSNKMARLGKGYMFESKSMKLRTQIPAEMLASIDLKYFNDSTRKKIEKIRPLLIDGTASLSPGMMMGMFNMLSTVLGVSILNLGQKRYTKTTYWWDGLQSSDDFALIVNAPNHEGIQAGVDRFYRTCKLLGINMSKKKSYINRTGTFEFTSFFYRYGFVANFSMELPSFGVSGINESADMSIGVTVIKNNMINNDLGPATAQMALQLFIKDYRYTYRCHRGDTQIQTRRSFEIKKLWEQTRSKAGLLVSDGGPNLYNIRNLHIPEVCLKWELMDEDYQGRLCNPLNPFVSHKEIESVNNAVMMPAHGPAKNMEYDAVATTHSWIPKRNRSILNTSQRGILEDEQMYQKCCNLFEKFFPSSSYRRPVGISSMVEAMVSRARIDARIDFESGRIKKEEFAEIMKICSTIEELRRQK
chain 3: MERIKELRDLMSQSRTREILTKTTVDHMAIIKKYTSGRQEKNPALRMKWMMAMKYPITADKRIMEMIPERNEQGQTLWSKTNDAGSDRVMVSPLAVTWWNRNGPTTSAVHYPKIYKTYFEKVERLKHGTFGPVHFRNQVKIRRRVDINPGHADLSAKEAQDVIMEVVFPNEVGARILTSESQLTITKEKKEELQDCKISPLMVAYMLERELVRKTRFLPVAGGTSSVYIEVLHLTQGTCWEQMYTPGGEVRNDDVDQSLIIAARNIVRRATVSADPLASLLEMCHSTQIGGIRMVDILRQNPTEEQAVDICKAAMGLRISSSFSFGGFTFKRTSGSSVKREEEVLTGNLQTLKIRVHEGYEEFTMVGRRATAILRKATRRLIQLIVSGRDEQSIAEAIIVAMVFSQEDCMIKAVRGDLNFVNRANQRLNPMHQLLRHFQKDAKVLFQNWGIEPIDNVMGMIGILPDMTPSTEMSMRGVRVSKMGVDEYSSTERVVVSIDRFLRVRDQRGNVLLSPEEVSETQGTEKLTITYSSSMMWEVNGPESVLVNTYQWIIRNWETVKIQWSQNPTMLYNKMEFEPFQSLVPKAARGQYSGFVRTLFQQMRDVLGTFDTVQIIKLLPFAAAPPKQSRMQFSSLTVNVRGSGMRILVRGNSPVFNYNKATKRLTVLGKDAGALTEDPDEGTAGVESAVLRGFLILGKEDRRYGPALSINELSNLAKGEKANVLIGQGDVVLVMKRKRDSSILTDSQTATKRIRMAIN
notes: also called 1918 polymerase; 1918 pandemic influenza virus polymerase; copies: + +
B1: the binding result is on record as “binds”.
